Experimental data taken from paper PMC7490372, “Structural bases of IMiD selectivity that emerges by 5-hydroxythalidomide” (Nature Communications, 2020).

B1: FLAG-GST-SALL4 (wild type) [human] / biotinylated CRBN (wild type) [modified: biotin (added by BirA during cell-free synthesis); biotin (added by BirA during cell-free synthesis)] [human] (parent)
chain 1: MSRRKQAKPQHINSEEDQGEQQPQQQTPEFADAAPAAPAAGELGAPVNHPGNDEVASEDEATVKRLRREETHVCEKCCAEFFSISEFLEHKKNCTKNPPVLIMNDSEGPVPSEDFSGAVLSHQPTSPGSKDCHRENGGSSEDMKEKPDAESVVYLKTETALPPTPQDISYLAKGKVANTNVTLQALRGTKVAVNQRSADALPAPVPGANSIPWVLEQILCLQQQQLQQIQLTEQIRIQVNMWASHALHSSGAGADTLKTLGSHMSQQVSAAVALLSQKAGSQGLSLDALKQAKLPHANIPSATSSLSPGLAPFTLKPDGTRVLPNVMSRLPSALLPQAPGSVLFQSPFSTVALDTSKKGKGKPPNISAVDVKPKDEAALYKHKCKYCSKVFGTDSSLQIHLRSHTGERPFVCSVCGHRFTTKGNLKVHFHRHPQVKANPQLFAEFQDKVAAGNGIPYALSVPDPIDEPSLSLDSKPVLVTTSVGLPQNLSSGTNPKDLTGGSLPGDLQPGPSPESEGGPTLPGVGPNYNSPRAGGFQGSGTPEPGSETLKLQQLVENIDKATTDPNECLICHRVLSCQSSLKMHYRTHTGERPFQCKICGRAFSTKGNLKTHLGVHRTNTSIKTQHSCPICQKKFTNAVMLQQHIRMHMGGQIPNTPLPENPCDFTGSEPMTVGENGSTGAICHDDVIESIDVEEVSSQEAPSSSSKVPTPLPSIHSASPTLGFAMMASLDAPGKVGPAPFNLQRQGSRENGSVESDGLTNDSSSLMGDQEYQSRSPDILETTSFQALSPANSQAESIKSKSPDAGSKAESSENSRTEMEGRSSLPSTFIRAPPTYVKVEVPGTFVGPSTLSPGMTPLLAAQPRRQAKQHGCTRCGKNFSSASALQIHERTHTGEKPFVCNICGRAFTTKGNLKVHYMTHGANNNSARRGRKLAIENTMALLGTDGKRVSEIFPKEILAPSVNVDPVVWNQYTSMLNGGLAVKTNEISVIQSGGVPTLPVSLGATSVVNNATVSKMDGSQSGISADVEKPSATDGVPKHQFPHFLEENKIAVS
chain 2: MAGEGDQQDAAHNMGNHLPLLPAESEEEDEMEVEDQDSKEAKKPNIINFDTSLPTSHTYLGADMEEFHGRTLHDDDSCQVIPVLPQVMMILIPGQTLPLQLFHPQEVSMVRNLIQKDRTFAVLAYSNVQEREAQFGTTAEIYAYREEQDFGIEIVKVKAIGRQRFKVLELRTQSDGIQQAKVQILPECVLPSTMSAVQLESLNKCQIFPSKPVSREDQCSYKWWQKYQKRKFHCANLTSWPRWLYSLYDAETLMDRIKKQLREWDENLKDDSLPSNPIDFSYRVAACLPIDDVLRIQLLKIGSAIQRLRCELDIMNKCTSLCCKQCQETEITTKNEIFSLSLCGPMAAYVNPHGYVHETLTVYKACNLNLIGRPSTEHSWFPGYAWTVAQCKICASHIGWKFTATKKDMSPQKFWGLTRSALLPTIPDTEDEISPDKVILCL
B2: FLAG-GST-IKZF1 (wild type) [not stated] / biotinylated CRBN (wild type) [modified: biotin (added by BirA during cell-free synthesis); biotin (added by BirA during cell-free synthesis)] [human] (parent)
chain 1: MDADEGQDMSQVSGKESPPVSDTPDEGDEPMPIPEDLSTTSGGQQSSKSDRVVASNVKVETQSDEENGRACEMNGEECAEDLRMLDASGEKMNGSHRDQGSSALSGVGGIRLPNGKLKCDICGIICIGPNVLMVHKRSHTGERPFQCNQCGASFTQKGNLLRHIKLHSGEKPFKCHLCNYACRRRDALTGHLRTHSVGKPHKCGYCGRSYKQRSSLEEHKERCHNYLESMGLPGTLYPVIKEETNHSEMAEDLCKIGSERSLVLDRLASNVAKRKSSMPQKFLGDKGLSDTPYDSSASYEKENEMMKSHVMDQAINNAINYLGAESLRPLVQTPPGGSEVVPVISPMYQLHKPLAEGTPRSNHSAQDSAVENLLLLSKAKLVPSEREASPSNSCQDSTDTESNNEEQRSGLIYLTNHIAPHARNGLSLKEEHRAYDLLRAASENSQDALRVVSTSGEQMKVYKCEHCRVLFLDHVMYTIHMGCHGFRDPFECNMCGYHSQDRYEFSSHITRGEHRFHMS
chain 2: B1 chain 2

Variants of: B1
Assay: AlphaScreen (AS-based interaction assay)
Conditions: with biotinylated CRBN (wild type) [modified: biotin (added by BirA during cell-free synthesis), (S)-5HT, last (highest) point of the titration, Log[(S)-5HT (µM)] about 2.3, signal relative to DMSO = 1, read off a plot

| response (Relative AS signal) | Variant |
| --- | --- |
| 4.5 | chain 1 V411Q R418S |
| 4.5 | chain 1 V411Q |

Same assay, conditions: with biotinylated CRBN (wild type) [modified: biotin (added by BirA during cell-free synthesis), (S)-thalidomide, last (highest) point of the titration, Log[(S)-Thal (µM)] about 2.3, signal relative to DMSO = 1, read off a plot

| response (Relative AS signal) | Variant |
| --- | --- |
| 62 | chain 1 V411Q R418S |
| 66 | chain 1 V411Q |

Same assay, conditions: with biotinylated CRBN (wild type) [modified: biotin (added by BirA during cell-free synthesis), (S)-thalidomide, last (highest) point of the titration, Log[(S)-Thal (µM)] = 2, signal relative to DMSO = 1, read off a plot

| Variant | response (Relative AS signal) |
| --- | --- |
| chain 1 V411K | 7 |
| chain 1 V411H | 20 |
| chain 1 V411I | 75 |

Continued, values first:

| response (Relative AS signal) | Variant |
| --- | --- |
| 14 | chain 1 V411R |
| 100 | chain 1 V411Q |

Same assay, conditions: with biotinylated CRBN (wild type) [modified: biotin (added by BirA during cell-free synthesis), pomalidomide, last (highest) point of the titration, Log[Pom (µM)] = 2, signal relative to DMSO = 1, read off a plot

| Variant | response (Relative AS signal) |
| --- | --- |
| chain 1 V411K | 8 |
| chain 1 V411A | 52 |
| chain 1 V411H | 22 |
| chain 1 V411I | 78 |

Now from value to variant:

| response (Relative AS signal) | Variant |
| --- | --- |
| 37 | chain 1 V411R |
| 100 | chain 1 V411Q |

Same assay, conditions: with biotinylated CRBN (wild type) [modified: biotin (added by BirA during cell-free synthesis), 5HP, last (highest) point of the titration, Log[5HP (µM)] = 2, signal relative to DMSO = 1, read off a plot

| Variant | response (Relative AS signal) |
| --- | --- |
| chain 1 V411A | 26 |
| chain 1 V411I | 51 |

Further lines, results first:

| response (Relative AS signal) | Variant |
| --- | --- |
| 14 | chain 1 V411L |
| 43 | chain 1 V411T |

Same assay, conditions: with biotinylated CRBN (wild type) [modified: biotin (added by BirA during cell-free synthesis), (S)-5HT, last (highest) point of the titration, Log[(S)-5HT (µM)] = 2, signal relative to DMSO = 1, read off a plot

| Variant | response (Relative AS signal) |
| --- | --- |
| chain 1 V411A | 29 |
| chain 1 V411I | 63 |

Other lines, results leading:

| response (Relative AS signal) | Variant |
| --- | --- |
| 14 | chain 1 V411L |
| 47 | chain 1 V411T |

Variants of: B2
Assay: AlphaScreen (AS-based interaction assay)
Conditions: with biotinylated CRBN (wild type) [modified: biotin (added by BirA during cell-free synthesis), (S)-5HT, last (highest) point of the titration, Log[(S)-5HT (µM)] about 2.3, signal relative to DMSO = 1, read off a plot

| response (Relative AS signal) | Variant |
| --- | --- |
| 26 | chain 1 Q146V S153R |
| 25 | chain 1 Q146V |

Same assay, conditions: with biotinylated CRBN (wild type) [modified: biotin (added by BirA during cell-free synthesis), (S)-thalidomide, last (highest) point of the titration, Log[(S)-Thal (µM)] about 2.3, signal relative to DMSO = 1, read off a plot

| response (Relative AS signal) | Variant |
| --- | --- |
| 14 | chain 1 Q146V S153R |
| 28 | chain 1 Q146V |
